# Laboratory results: patent US20100040633A1 (published 2010)
# T1: TGF-beta 3 (human, UniProt P10600 301-412)
# T1 construct: Bought protein; also called TGF-β3
# T1 sequence (looked up): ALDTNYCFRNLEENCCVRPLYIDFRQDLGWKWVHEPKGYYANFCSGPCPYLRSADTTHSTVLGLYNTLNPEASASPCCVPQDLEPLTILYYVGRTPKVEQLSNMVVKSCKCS
# Target: T1, TGF-beta 3
# Assay: ratio of Biacore Kd for TGF-β3 to Kd for TGF-β1
# Procedure: Affinities of binding composition mAbs for TGF-β3 are determined using BIAcore methods. All measurements are performed at room temperature. Samples are dissolved in HBS-EP buffer (150 mM sodium chloride, 3 mM EDTA, 0.01% (w/v) surfactant P-20, and 10 mM HEPES, pH 7.4). Recombinant Protein A is immobilized on four flow cells of a CM4 sensor chip at a level of 400-450 response units (RUs) using an amine coupling kit. Binding is evaluated over multiple analytical cycles. Each cycle is performed at a flow rate of 100 μL/minute consisting of the following steps: injection of 15 μL of an antibody binding composition at 0.5 μg/mL, injection of 250 μL of TGF-β3 (starting at 5 nM and using two-fold serial dilutions to […] for each cycle, with two injections for each concentration) followed by a short (5 minutes) delay for dissociation, and regeneration using two injections of 50 μL of 10 mM glycine hydrochloride, pH 1.5.
# Affinities are determined based upon the equilibrium signal as reached at varying TGF-β3 concentrations by measuring the average signal during the last 10 seconds of the TGF-β3 injections, and then fitting the resulting signals at all of the TGF-β3 concentrations to a simple binding equilibrium model in SCRUBBER (Center for Biomolecular Interaction Analysis, Univ. of Utah). Model data determined for tested human mab composition of the invention of Kd and specificity calculated by dividing the Kd for TGF-β3 binding by the Kd for TGF-β1 binding (herein) is shown below in Table 5.
row,Binder,"Specificity (Kd, β3/Kd, β1)"
1,"mAb 21D1 (antibody, human IgG4 S228P, kappa, V domains shown, Full-length IgG4 antibody; also called LA307-21D1) VH: QVQLVQSGAEVKKPGASVKVSCKASGYTFTDYNIHWVRQAPGQGLEWMGYIYPYDGETGYNQKFKSRVTMTTDTSTSTAYMELRSLRSDDTAVYYCARGYRWFAYWGQGTLVTVSS VL: DIQMTQSPSSLSASVGDRVTITCRASSSVPYMHWFQQKPGKAPKSLIYATSNPAYGVPSRFSGSGSGTDFTLTISSLQPEDFATYYCQQWDLNPPAFGQGTKLEIKR",9800
2,"mAb DM4 (antibody, human IgG4 S228P, kappa, V domains shown, Full-length IgG4 antibody; also called LA307-DM4) VH: QVQLVQSGAEVKKPGASVKVSCKASGYDFTDYNIHWVRQAPGQGLEWMGYIYPYDGETGYNQKFKSRVTMTTDTSTSTAYMELRSLRSDDTAVYYCARGYRWLAYWGQGTLVTVSS VL: DIQMTQSPSSLSASVGDRVTITCRASSSVSYMHWYQQKPGKAPKPLIYATSNLAYGVPSRFSGSGSGTDFTLTISSLQPEDFATYYCQQWDLNPPAFGQGTKLEIKR",621
3,"mAb DM7 (antibody, V domains shown) VH: QVQLVQSGAEVKKPGASVKVSCKASGYDFTDYNMHWVRQAPGQGLEWMGYIYPYDGETGYNQKFKSRVTMTTDTSTSTAYMELRSLRSDDTAVYYCARGYRWLYYWGQGTLVTVSS VL: DIQMTQSPSSLSASVGDRVTITCRASSSVSYMHWYQQKPGKAPKPLIYATSNLAKGVPSRFSGSGSGTDFTLTISSLQPEDFATYYCQQWDLNPPAFGQGTKLEIK",2320
4,"mAb 23A3 (antibody, V domains shown) VH: QVQLVQSGAEVKKPGASVKVSCKASGYDFTDYNMVWVRQAPGQGLEWMGSIYPYDGETGYNQKFKSRVTMTTDTSTSTAYMELRSLRSDDTAVYYCARGYRAFEYWGQGTLVTVSS VL: DIQMTQSPSSLSASVGDRVTITCRASSSVPYMHWYQQKPGKAPKLLIYATSNPAYGVPSRFSGSGSGTDFTLTISSLQPEDFATYYCQQWDLNPPAFGQGTKLEIK",1050
